Test: yeast display, Sf9 membrane polyspecificity reagent, FACS + sequencing; frameworks hold sequencing errors
Outline: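 Genes from sorted yeast were amplified by colony PCR, read by MiSeq 2 × 250 sequencing and filtered on CDR length. These cells carried a synthetic nanobody library in Saccharomyces cerevisiae BJ5465 and were sorted by FACS into low and high (top ~1%) gates on anti-HA and streptavidin fluorescence. Polyreactivity is labelled according to the gate of origin.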

Sequence | polyreactivity (PSR sort gate)
QVQLVESGGCLVQAGGSLRLSCAASRFTFTYYAMGWYRHAPGKESELVAAITRRGGRTYYAYSVKGRFTISRDNAKNTVYLQMNSLKPEDTAVYYCNADEYGGSTGRKGRYNYWGQGTQVTVSS | low polyreactivity
QVQLVESGGCLVQAGGSLRLSCAPSGSIFKVYAKGWYRQAPGKVRELVAAITNGGSTYADSVKGRFTMSRDNAKYTVYLQMNSLKPEDTAVYYCDSDYRGHSGSWYDYWGQGTQVTVSS | low polyreactivity
QVQLVESGGCLVQAGGSLRLSCPASGNNFTAYAMGWYRQAPAKERELVAAISSSGRTNYADSVKGRFTISRDNAKNTVYLQMNSLKPEDTAVYYCAAYRLSNPFYKYDYWGQGTQVTVSS | high polyreactivity
QVQLVESGGCLVQAGGSLRLSCSASGIIFFPYAMGWYRQAPGKERELVASINISDSSTYYADSVNGRFTISRDNAKNTVYLQMNTLKPEDSAVSYCAADNPGDSWYWHGNWGQGTQVTVSS | low polyreactivity
QVQLVESGGCLVQAGGSLRLSFAASGSTLPYYSMGWYRHAPGKERELVAAITSSGGDTYYADSVKGRFTISRDIAKNTVYLQMNSLKPEDTAVYYCAKSFSARSTVRKLFYFAYDYWGQGTQVTVSS | low polyreactivity
QVQLVESGGCLVQAGGSLRLSGAASGYTFFFNVMGWYRPAPGKERQMVAAISYSGGSTNYADSVKGRFTISRDNAKITVYLQINSLKPEDTAVYYCNARSVSRNGYQDDYWGQGTQVTVSS | low polyreactivity
QVQLVESGGCLVQAGGSLRLSSAASGFIIPGNPMCWYRQAPAKERDLVAAITSGGSTKYADSVKGRITISRDNAKNTDYLQMNSLKPEDTAVYYCAARGFPPGDEWHPYDYWGQGTQVTVSS | low polyreactivity
QVQLVESGGCLVQAGGSLRLTCAASGFIFYRYAMGWYRHAPGKESELVAAISKSGSSTYYADSVKGRFTISRDNAKNTVYLQMNSLKPEDTAVYYCARDRQSRSLLEDDYWGQGTQVTVSS | high polyreactivity
QVQLVESGGCLVQAGGSRRLSCAASGLTIYHYAMGWYRQATGKERELVAAITNGYSTYYADSVKGRFTISLDNAMNTVYLQMNSLKPEDTAVYSCNADQPGDQHSGYWGQGTQVTVSS | low polyreactivity
QVQLVESGGCLVQAGGSVRLSCDASGITFVGNDMGWYRQAPGKERELVAAISSGSTHYADSVKGRFTISRDNAKNTVYLLMNSLKPEDTAFYYCAADIRGGLSNYSPKDYDYWGLGTQVTVSS | low polyreactivity
QVQLVESGGCLVQAGGTLRLSCASSGNTFVDYGMGWYRQAPGKERELVAAITRGGTTKYADSVKGRFTISRVNAKNKVYLQMNSLKPEDTAVYYCAAEWPVNFDYWGKGTQVTVSS | low polyreactivity
QVQLVESGGCLVQAGRSLRLSCAASGIIFGGNVMGWYRQAAGKERQLVAAINWSVVTTYYADSVKGRFTISRDNAKNTVYLQMNSLKAADTAVYYCNKDYVTAPYFYFIDTMDYWGQGTQGTVSS | low polyreactivity
QVQLVESGGDLVQAGGSLRLSCAASGRTFRYYAMGWYRLAPGKERELVAAISSSGDRTYYADSVKGRFTISRDTAKNTVYLQLNSLKPEDTAVYYCAADRGARGDYCGQGTQVTVSS | high polyreactivity
QVQLVESGGDLVQAGGSLRLSCAASGRTFSANGMGWYRQAPGKERELVAAITRSGGITYYADSVKGRFTISRDNAKNTVYLQMNSLKPEDTAVYYCAASVYSLSRRSWMDYWGQGTQVTVSS | low polyreactivity
QVQLVESGGDLVQAGGSLRLSCAATGYTFLRYTMGWYRQAPGKERELVAAITSGTSTYYADSVKGRFTISRDNEKNTVYLQMNSLKPEDTAVYYCDKTPTRQRYGHWGQGTQVTVSS | high polyreactivity
QVQLVESGGGCSGGRSLRLSCAASGLIFVDNAMGWYRQAPGKERELVAAITWSTGSTYYADSVKGRFTISRDNAKNTVYLQMNSLKPEDTAVYYCNKRYKYRYYYWGQGTQVTVSS | low polyreactivity
QVQLVESGGGFFQAGGRLRLSCAASGRIFGINAMGWYRQAPGKERELVAAISRSGGRTYYADSVKGRFTISRDNGKNTVYFQMNSLKPEDTAVYDCAQGDAHSYSRYDYWGPGTQVTVSS | high polyreactivity

From the nanobody polyreactivity screen of Harvey et al. (2022)
